Experimental data published in the supplement of paper PMC10724198.

Assays:
Saccharomyces cerevisiae [1] = assay: protein stability index of tFT-peptide fusion in deletion strain of DAS1 (PSI (0-1 scale)); higher = more stable (slower turnover)
Procedure: (§1)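 MPS profiling in S. cerevisiae of two library types built from selected 12-aa C-degron peptides (IN1, IN2, LN1, LN3, VN2, R1-R5, W1-W3, Atg1 and Rpa12 C-termini): saturation mutagenesis libraries and C-terminal +1 capping libraries (13 aa). Each peptide is fused to the C-terminus of a sfGFP-mCherry timer, after a GGGS linker. Cells are FACS-sorted into 8 mCherry/sfGFP bins and sequenced. PSI runs from 0 (unstable) to 1 (stable), measured once in wild type and in the das1Δ or doa10Δ background.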

Saccharomyces cerevisiae [2] = assay: protein stability index of tFT-peptide fusion in wild type (PSI (0-1 scale)); higher = more stable (slower turnover); details: genetic background: wild type
Procedure: as §1
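Throughout, for protein stability index of tFT-peptide fusion in deletion strain of DAS1: PSI is a weighted mean of each variant's read distribution over the sorted stability bins, computed only for variants having over 10 reads in total.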
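Throughout, for protein stability index of tFT-peptide fusion in wild type: PSI derived as read-weighted mean over the 8 sorting bins, only variants exceeding 10 total reads kept, mCherry placed adjacent to the peptide and sfGFP distal.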

Sequence | protein stability index (Saccharomyces cerevisiae [1]) | protein stability index (Saccharomyces cerevisiae [2])
FSMRWTFKYWVN | 0.485 | 0.0423
FSMRWTFLYWVN | 0.383 | 0.0672
FSMRWTFNYWVN | 0.719 | 0.0909
FSMRWTFRYDVN | 0.572 | 0.524
FSMRWTFRYWAN | 0.537 | 0.101
FSMRWTFRYWKN | 0.524 | 0.634
FSMRWTFRYWPN | 0.528 | 0.525
FSMRWTFRYWVH | 0.439 | 0.094
FSMRWTFRYWVI | 0.461 | 0.147
FSMRWTFRYWVNE | 0.542 | 0.532
FSMRWTFRYWVNL | 0.549 | 0.139
FSMRWTFRYWVNW | 0.534 | 0.436
FSMRWTFRYWVV | 0.526 | 0.0991
FSMRWTQRYWVN | 0.545 | 0.117
FSMRWWFRYWVN | 0.533 | 0.0988
FSMTWTFRYWVN | 0.568 | 0.0417
FYMRWTFRYWVN | 0.351 | 0.044
GRWRVGLWRGAS | 0.691 | 0.447
IRGAVGGWRLVG | 0.681 | 0.154
KAHKKGQKQKIN | 0.858 | 0.111
KDKRNHLIKLLN | 0.723 | 0.0684
KEHKKGQKQKIN | 0.634 | 0.127
KHHKKGQKQKIN | 0.581 | 0.101

Sequence | protein stability index (Saccharomyces cerevisiae [1]) | protein stability index (Saccharomyces cerevisiae [2])
KKHFKGQKQKIN | 0.594 | 0.0456
KKHIKGQKQKIN | 0.598 | 0.0778
KKHKFGQKQKIN | 0.578 | 0.0916
KKHKKGEKQKIN | 0.658 | 0.082
KKHKKGQEQKIN | 0.543 | 0.109
KKHKKGQKQDIN | 0.601 | 0.795
KKHKKGQKQKIE | 0.585 | 0.567
KKHKKGQKQKIF | 0.602 | 0.218
KKHKKGQKQKIG | 0.591 | 0.226
KKHKKGQKQKII | 0.632 | 0.12
KKHKKGQKQKINC | 0.658 | 0.333
KKHKKGQKQKINF | 0.669 | 0.652
KKHKKGQKQKINK | 0.659 | 0.647
KKHKKGQKQKINM | 0.662 | 0.638
KKHKKGQKQKINT | 0.662 | 0.62
KKHKKGQKQKIW | 0.558 | 0.637
KKHKKGQKQKYN | 0.586 | 0.309
KKHKKGQTQKIN | 0.591 | 0.0981
KKHKKGQVQKIN | 0.649 | 0.152
KKHKKSQKQKIN | 0.584 | 0.0607
KKHKLGQKQKIN | 0.58 | 0.0725
KKIKKGQKQKIN | 0.58 | 0.06
KKQKKGQKQKIN | 0.566 | 0.177

Sequence | protein stability index (Saccharomyces cerevisiae [1]) | protein stability index (Saccharomyces cerevisiae [2])
KKWKKGQKQKIN | 0.561 | 0.0754
KRHKKGQKQKIN | 0.634 | 0.0723
KVVYLSCVACIN | 0.0792 | 0.0215
LKILPQKMNHQN | 0.686 | 0.417
LKILRIKMNHQN | 0.66 | 0.19
LKILRNKMNHQN | 0.703 | 0.269
LKILRQAMNHQN | 0.658 | 0.23
LKILRQDMNHQN | 0.643 | 0.647
LKILRQGMNHQN | 0.667 | 0.49
LKILRQHMNHQN | 0.662 | 0.201
LKILRQKGNHQN | 0.676 | 0.655
LKILRQKHNHQN | 0.67 | 0.322
LKILRQKMNCQN | 0.673 | 0.207
LKILRQKMNEQN | 0.663 | 0.253
LKILRQKMNHAN | 0.657 | 0.196
LKILRQKMNHIN | 0.671 | 0.183
LKILRQKMNHQE | 0.675 | 0.507
LKILRQKMNHQM | 0.656 | 0.244
LKILRQKMNHQNR | 0.673 | 0.677
LKILRQKMNHQNS | 0.671 | 0.521
LKILRQKMNHQV | 0.671 | 0.189
LKILRQKMNHQW | 0.679 | 0.255
LKILRQKMNTQN | 0.675 | 0.212

Sequence | protein stability index (Saccharomyces cerevisiae [1]) | protein stability index (Saccharomyces cerevisiae [2])
LKILRQKMRHQN | 0.669 | 0.301
LKILRQKRNHQN | 0.669 | 0.299
LKILRQKTNHQN | 0.69 | 0.403
LKILRQRMNHQN | 0.662 | 0.251
LKIPRQKMNHQN | 0.679 | 0.484
LKISRQKMNHQN | 0.677 | 0.323
LKRLRQKMNHQN | 0.666 | 0.202
LKTLRQKMNHQN | 0.672 | 0.205
LKWLRQKMNHQN | 0.697 | 0.146
LLILRQKMNHQN | 0.673 | 0.155
LLIQPLPVQFLN | 0.624 | 0.0661
LSVYLSCVACIN | 0.145 | 0.0226
LVEYLSCVACIN | 0.373 | 0.247
LVVDLSCVACIN | 0.367 | 0.137
LVVLLSCVACIN | 0.0371 | 0.0235
LVVYLICVACIN | 0.0584 | 0.0186
LVVYLSCFACIN | 0.0433 | 0.0181
LVVYLSCVACIF | 0.029 | 0.0136
LVVYLSCVACII | 0.0431 | 0.0175
LVVYLSCVACINQ | 0.207 | 0.187
